Consider one molecule from PMC6909241.

The data set concerns the target NCp7 (nucleocapsid protein) (HIV-1, UniProt P12493 378-432). Kind of data set: EMSA; 7.5-300 nM NCp7, 15 nM RNA folded in 50 mM KCl; free G4 decreases from 75 nM, near complete disappearance and faint complex at 300 nM; EMSA: RNA annealed in 10 mM Li cacodylate pH 7.4, 50 mM KCl; 15 nM RNA in 8% glycerol, 30 mM Tris-HCl, 15 mM MgCl2, 50 uM ZnCl2, 37 C; 12% native gel at 4 C. A general note: Mobility shift assays separate free from complexed probe on a gel.

B1: RNA U3-III+IV G4 (structured_RNA)
RNA: GGGAGGCGUGGCCUGGGCGGGACUGGGGAGUGG
Consider B1, for which the binding result is recorded as “binds”.
